Source: US20130078188

How the values were obtained:
[1] = biological target: T1, Cy7-NH-e9-c(S-Peg12) oDPRSFL-r9-c(Cy5)-CONH2 (5, …)
T1 chain: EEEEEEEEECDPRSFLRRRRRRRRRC

[2] = biological target: T2, Cy7-NH-e9-c(S-Peg12) oPPRSFL-r9-c(Cy5)-CONH2 (10, …)
T2 chain: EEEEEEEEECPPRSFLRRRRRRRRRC

[3] = biological target: T3, Cy7-NH-e9-c(S-Peg12)oPLGC(Me)AG-r9-c(Cy5)-CONH2 (20, …(Me)AG)
T3 chain: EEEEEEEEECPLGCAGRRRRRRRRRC

B1: plasmin (protein)
chain: KVYLSECKTGNGKNYRGTMSKTKNGITCQKWSSTSPHRPRFSPATHPSEGLEENYCRNPDNDPQGPWCYTTDPEKRYDYCDILECEEECMHCSGENYDGKISKTMSGLECQAWDSQSPHAHGYIPSKFPNKNLKKNYCRNPDRELRPWCFTTDPNKRWELCDIPRCTTPPPSSGPTYQCLKGTGENYRGNVAVTVSGHTCQHWSAQTPHTHNRTPENFPCKNLDENYCRNPDGKRAPWCHTTNSQVRWEYCKIPSCDSSPVSTEQLAPTAPPELTPVVQDCYHGDGQSYRGTSSTTTTGKKCQSWSSMTPHRHQKTPENYPNAGLTMNYCRNPDADKGPWCFTTDPSVRWEYCNLKKCSGTEASVVAPPPVVLLPDVETPSEEDCMFGNGKGYRGKRATTVTGTPCQDWAAQEPHRHSIFTPETNPRAGLEKNYCRNPDGDVGGPWCYTTNPRKLYDYCDVPQCAAPSFDCGKPQVEPKKCPGRVVGGCVAHPHSWPWQVSLRTRFGMHFCGGTLISPEWVLTAAHCLEKSPRPSSYKVILGAHQEVNLEPHVQEIEVSRLFLEPTRKDIALLKLSSPAVITDKVIPACLPSPNYVVADRTECFITGWGETQGTFGAGLLKEAQLPVIENKVCNRYEFLNGRVQSTELCAGHLAGGTDSCQGDSGGPLVCFEKDKYILQGVTSWGLGCARPNKPGVYVRVSRFVTWIEGVMRNN
For B1, which kcat/Km [1] is on record?
Its kcat/Km is 10000 M⁻¹ s⁻¹.

And the “kcat/Km, fold lower than for thrombin” value [2]?
Its value is 14.3 fold lower kcat/Km.

What about the “peptide cleavage, SDS-PAGE with Cy5/Cy7 ratio imaging” value [3] of the same protein?
Its value is “not cleaved by any of the pro-coagulation enzymes”.
